Results published in the supplement of paper PMC9112550, “Optimization of the antimicrobial peptide Bac7 by deep mutational scanning” (BMC Biology, 2022).

Test system: Escherichia coli TOP10
Experiment: shrunken log2 fold change of peptide-encoding DNA abundance (4.5 h post-induction vs induction); higher = less antimicrobial activity (less host growth inhibition)
Settings: time post-induction: 4.5 h; library: site-saturation at positions 5, 18, 19, 20
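Also: peptides expressed intracellularly from a pBAD plasmid library in pooled LB shake-flask culture, induced with 0.3% L-arabinose, DNA abundance read by NGS, three biological replicates, DESeq2 with apeglm shrinkage.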

Sequence | shrunken log2 fold change
RRIRNRPPRLPRPRPRPVMPPRP | 0.267
RRIRNRPPRLPRPRPRPVMWPRP | 0.351
RRIRNRPPRLPRPRPRPVNGPRP | -0.372
RRIRNRPPRLPRPRPRPVNKPRP | -0.19
RRIRNRPPRLPRPRPRPVSVPRP | -0.143
RRIRNRPPRLPRPRPRPVVFPRP | -0.0743
RRIRNRPPRLPRPRPRPVVYPRP | -0.228
RRIRNRPPRLPRPRPRPVWAPRP | 0.599
RRIRNRPPRLPRPRPRPVWHPRP | -0.154
RRIRNRPPRLPRPRPRPVYFPRP | -0.301
RRIRNRPPRLPRPRPRPWALPRP | -0.0675
RRIRNRPPRLPRPRPRPWCAPRP | -0.0696
RRIRNRPPRLPRPRPRPWCEPRP | 0.034
RRIRNRPPRLPRPRPRPWCVPRP | -0.396
RRIRNRPPRLPRPRPRPWEVPRP | 0.00408
RRIRNRPPRLPRPRPRPWFDPRP | -0.876
RRIRNRPPRLPRPRPRPWHHPRP | -0.209
RRIRNRPPRLPRPRPRPWHLPRP | -0.0913
RRIRNRPPRLPRPRPRPWNHPRP | -0.612
RRIRNRPPRLPRPRPRPWPRPRP | -0.0347
RRIRNRPPRLPRPRPRPWRHPRP | -0.109
RRIRNRPPRLPRPRPRPWRSPRP | 0.111
RRIRNRPPRLPRPRPRPWSKPRP | -0.167
RRIRNRPPRLPRPRPRPWVKPRP | -0.0802
RRIRNRPPRLPRPRPRPWVMPRP | -0.00783

Sequence | shrunken log2 fold change
RRIRNRPPRLPRPRPRPWYRPRP | -0.117
RRIRNRPPRLPRPRPRPYDNPRP | -0.897
RRIRNRPPRLPRPRPRPYFAPRP | -0.198
RRIRNRPPRLPRPRPRPYFCPRP | -0.5
RRIRNRPPRLPRPRPRPYGIPRP | -0.00992
RRIRNRPPRLPRPRPRPYGLPRP | -0.106
RRIRNRPPRLPRPRPRPYHDPRP | -0.165
RRIRNRPPRLPRPRPRPYHQPRP | -0.308
RRIRNRPPRLPRPRPRPYISPRP | 0.00753
RRIRNRPPRLPRPRPRPYKEPRP | -0.0525
RRIRNRPPRLPRPRPRPYLFPRP | -0.541
RRIRNRPPRLPRPRPRPYNFPRP | -0.176
RRIRNRPPRLPRPRPRPYQKPRP | -0.0633
RRIRNRPPRLPRPRPRPYQVPRP | -0.0131
RRIRNRPPRLPRPRPRPYSGPRP | 0.00884
RRIRNRPPRLPRPRPRPYSQPRP | -0.0488
RRIRNRPPRLPRPRPRPYTCPRP | -0.0637
RRIRNRPPRLPRPRPRPYTIPRP | -0.138
RRIRNRPPRLPRPRPRPYTRPRP | -0.124
RRIRNRPPRLPRPRPRPYVFPRP | -0.7
RRIRPRPPRLPRPRPRPAANPRP | 0.17
RRIRPRPPRLPRPRPRPAAYPRP | 0.0551
RRIRPRPPRLPRPRPRPACCPRP | 0.405
RRIRPRPPRLPRPRPRPACPPRP | 0.147
RRIRPRPPRLPRPRPRPACSPRP | 0.184

Sequence | shrunken log2 fold change
RRIRPRPPRLPRPRPRPACWPRP | 0.671
RRIRPRPPRLPRPRPRPAEGPRP | 0.394
RRIRPRPPRLPRPRPRPAEPPRP | -0.0331
RRIRPRPPRLPRPRPRPAIRPRP | 0.0298
RRIRPRPPRLPRPRPRPAKCPRP | -0.172
RRIRPRPPRLPRPRPRPAKKPRP | 0.0429
RRIRPRPPRLPRPRPRPALAPRP | 0.412
RRIRPRPPRLPRPRPRPAMYPRP | 0.0514
RRIRPRPPRLPRPRPRPANDPRP | -0.155
RRIRPRPPRLPRPRPRPAQAPRP | 0.329
RRIRPRPPRLPRPRPRPAQKPRP | 0.273
RRIRPRPPRLPRPRPRPASCPRP | 0.186
RRIRPRPPRLPRPRPRPASPPRP | 0.287
RRIRPRPPRLPRPRPRPAWCPRP | 0.252
RRIRPRPPRLPRPRPRPAYSPRP | -0.23
RRIRPRPPRLPRPRPRPCDCPRP | 0.0287
RRIRPRPPRLPRPRPRPCECPRP | -0.014
RRIRPRPPRLPRPRPRPCENPRP | -0.0133
RRIRPRPPRLPRPRPRPCFHPRP | -0.202
RRIRPRPPRLPRPRPRPCFTPRP | -0.307
RRIRPRPPRLPRPRPRPCGMPRP | 0.0189
RRIRPRPPRLPRPRPRPCHAPRP | -0.242
RRIRPRPPRLPRPRPRPCHRPRP | -0.181
RRIRPRPPRLPRPRPRPCKKPRP | -0.0659
RRIRPRPPRLPRPRPRPCLTPRP | -0.0809

Sequence | shrunken log2 fold change
RRIRPRPPRLPRPRPRPCMFPRP | -0.577
RRIRPRPPRLPRPRPRPCNRPRP | -0.148
RRIRPRPPRLPRPRPRPCPIPRP | 0.082
RRIRPRPPRLPRPRPRPCQAPRP | 0.00851
RRIRPRPPRLPRPRPRPCRHPRP | -0.0363
RRIRPRPPRLPRPRPRPCSCPRP | -0.516
RRIRPRPPRLPRPRPRPCSSPRP | -0.467
RRIRPRPPRLPRPRPRPCSVPRP | 0.0152
RRIRPRPPRLPRPRPRPCTTPRP | -0.732
RRIRPRPPRLPRPRPRPCVWPRP | 0.0579
RRIRPRPPRLPRPRPRPCYGPRP | 0.0701
RRIRPRPPRLPRPRPRPCYNPRP | -0.868
RRIRPRPPRLPRPRPRPCYPPRP | -0.301
RRIRPRPPRLPRPRPRPDAAPRP | 0.721
RRIRPRPPRLPRPRPRPDAHPRP | 0.209
RRIRPRPPRLPRPRPRPDARPRP | 0.58
RRIRPRPPRLPRPRPRPDCMPRP | 0.053
RRIRPRPPRLPRPRPRPDDAPRP | -0.0674
RRIRPRPPRLPRPRPRPDDIPRP | -0.0962
RRIRPRPPRLPRPRPRPDDMPRP | 0.0244
RRIRPRPPRLPRPRPRPDDYPRP | 0.0238
RRIRPRPPRLPRPRPRPDEDPRP | 0.00574
RRIRPRPPRLPRPRPRPDEPPRP | 0.0641
RRIRPRPPRLPRPRPRPDGGPRP | -0.129
RRIRPRPPRLPRPRPRPDKMPRP | 0.0748

Sequence | shrunken log2 fold change
RRIRPRPPRLPRPRPRPDLLPRP | -0.0805
RRIRPRPPRLPRPRPRPDMCPRP | 0.00204
RRIRPRPPRLPRPRPRPDMEPRP | -0.0437
RRIRPRPPRLPRPRPRPDMPPRP | -0.302
RRIRPRPPRLPRPRPRPDMRPRP | 0.861
RRIRPRPPRLPRPRPRPDNYPRP | -0.496
RRIRPRPPRLPRPRPRPDPEPRP | 0.136
RRIRPRPPRLPRPRPRPDRMPRP | -0.234
RRIRPRPPRLPRPRPRPDRRPRP | 0.192
RRIRPRPPRLPRPRPRPDSNPRP | -0.221
RRIRPRPPRLPRPRPRPDVFPRP | -0.203
RRIRPRPPRLPRPRPRPDWEPRP | 0.19
RRIRPRPPRLPRPRPRPDWGPRP | 0.107
RRIRPRPPRLPRPRPRPDWYPRP | -0.213
RRIRPRPPRLPRPRPRPDYMPRP | -0.334
RRIRPRPPRLPRPRPRPEAEPRP | 0.979
RRIRPRPPRLPRPRPRPEAKPRP | 1.03
RRIRPRPPRLPRPRPRPEDCPRP | -0.0873
RRIRPRPPRLPRPRPRPEDLPRP | 0.0558
RRIRPRPPRLPRPRPRPEEHPRP | -0.0242
RRIRPRPPRLPRPRPRPEGAPRP | 0.713
RRIRPRPPRLPRPRPRPEHYPRP | -0.106
RRIRPRPPRLPRPRPRPEICPRP | 0.0345
RRIRPRPPRLPRPRPRPEIQPRP | 0.07
RRIRPRPPRLPRPRPRPEKYPRP | -0.562

Sequence | shrunken log2 fold change
RRIRPRPPRLPRPRPRPELDPRP | 0.0969
RRIRPRPPRLPRPRPRPEMRPRP | 0.329
RRIRPRPPRLPRPRPRPENDPRP | -0.0164
RRIRPRPPRLPRPRPRPEPSPRP | 0.314
RRIRPRPPRLPRPRPRPEQVPRP | 0.0348
RRIRPRPPRLPRPRPRPERAPRP | 1.17
RRIRPRPPRLPRPRPRPERDPRP | 0.195
RRIRPRPPRLPRPRPRPERGPRP | 0.575
RRIRPRPPRLPRPRPRPERHPRP | 0.00192
RRIRPRPPRLPRPRPRPERIPRP | 0.152
RRIRPRPPRLPRPRPRPERVPRP | 0.451
RRIRPRPPRLPRPRPRPESHPRP | -0.00995
RRIRPRPPRLPRPRPRPESMPRP | 0.142
RRIRPRPPRLPRPRPRPETFPRP | 0.176
RRIRPRPPRLPRPRPRPETWPRP | 0.1
RRIRPRPPRLPRPRPRPEWWPRP | 0.0468
RRIRPRPPRLPRPRPRPEYEPRP | -0.0375
RRIRPRPPRLPRPRPRPFDCPRP | -0.52
RRIRPRPPRLPRPRPRPFGKPRP | -0.164
RRIRPRPPRLPRPRPRPFGWPRP | 0.328
RRIRPRPPRLPRPRPRPFHLPRP | -0.54
RRIRPRPPRLPRPRPRPFHSPRP | -0.153
RRIRPRPPRLPRPRPRPFHWPRP | 0.0105
RRIRPRPPRLPRPRPRPFKDPRP | -0.93
RRIRPRPPRLPRPRPRPFKGPRP | -0.209
